{"source": "the RNAGym collection of RNA variant scans (doi:10.1073/pnas.2313332121)", "parents": {"B1": {"name": "TPR t1 (parent)", "chain": "GACCAAUCUGCCCUCAGAGCUCGAGAACAUCUUCGGAUGCAGAGGAGGCAGGCUUCGGUGGCGCGAUAGCGCCAACGUCCUCAACCUCCAAUGCAUCCCACCACAUGAUGAUGCCUGAAGAGCCUUGGUUUUUUG"}}, "data": [{"variants_of": "B1", "assay": "polymerase ribozyme fitness, log enrichment relative to wild type (log ratio); higher = more active; in vitro selection for triplet polymerase activity", "method_in_brief": "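A heterodimeric triplet polymerase ribozyme had each of its subunits mutagenized by PCR into a library, which was transcribed. One round of in vitro selection, done in triplicate, annealed each library with a biotinylated primer, its partner subunit and triplets, then incubated it frozen at −7 °C before gel excision of extended constructs, streptavidin-bead capture and RT-PCR. Fitness is the logarithm of genotype enrichment relative to wild-type enrichment, based on Illumina sequencing of inputs and outputs and inverse-variance-weighted replicate averages. A base-2 logarithm is used, and genotypes were kept only with ≥10 input reads and ≥1 read per output.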", "values": [{"variant": "GACCAAUCUGCCCUCAGAGCUCGAGAACAUCUUCGGAAGCAGAGGAGGCAGGCUUCGGUGGCGCGAUAGCGCCAACGUCCUCAACCUCCAAUGCAUCCCACAACAUGAUGAUGCCUGAAGAGCCUUGGUUUUUUG", "note": "[U38A C102A]", "polymerase ribozyme fitness (log ratio)": -4.22}, {"variant": "GACCAAUCUGCCCUCAGAGCUCGAGAACAUCUUCGGAAGCAGAGGAGGCAGGCUUCGGUGGCGCGAUAGCGCCAACGUCCUCAACCUCCAAUGCAUCCCACUACAUGAUGAUGCCUGAAGAGCCUUGGUUUUUUG", "note": "[U38A C102U]", "polymerase ribozyme fitness (log ratio)": -4.16}, {"variant": "GACCAAUCUGCCCUCAGAGCUCGAGAACAUCUUCGGAAGCAGAGGAGGCAGGCUUCGGUGGCGCGAUAGCGCUAACGUCCUCAACCUCCAAUGCAUCCCACCACAUGAUGAUGCCUGAAGAGCCUUGGUUUUUUG", "note": "[U38A C73U]", "polymerase ribozyme fitness (log ratio)": -2.86}, {"variant": "GACCAAUCUGCCCUCAGAGCUCGAGAACAUCUUCGGAAGCAGAGGAGGCUGGCUUCGGUGGCGCGAUAGCGCGAACGUCCUCAACCUCCAAUGCAUCCCACCACAUGAUGAUGCCUGAAGUGCCUUGGUUUUUUG", "note": "[U38A A50U C73G A121U]", "polymerase ribozyme fitness (log ratio)": -0.841}, {"variant": "GACCAAUCUGCCCUCAGAGCUCGAGAACAUCUUCGGUUGCAGAGGAGGCAGGCUUCGGUGGCGCGAUAGCGCCAACGUCCUCAACCUCCAAUGCAUCCCACCACAUGAUGAUGCCUGAAGAGCCGUGGUUUUUUG", "note": "[A37U U125G]", "polymerase ribozyme fitness (log ratio)": -1.07}, {"variant": "GACCAAUCUGCCCUCAGAGCUCGAGAACAUCUUCGGAAGAAGAGGAGGCAGGCUUCGGUGGCGCGAUAGCGCCAACGUCCUCAACCUCCAAUUCAUCCCACCACAUGAUGAUGCCUGAAGAGCCUUGGUUUUUUG", "note": "[U38A C40A G93U]", "polymerase ribozyme fitness (log ratio)": -0.915}, {"variant": "GACCAAUCUGCCCUCAGAGCUCGAGAACAUCUUCGGUUGCAGAGGAGGCAGGCAUCGGUGCCGCGAUAGCGCCAACGUCCUCAACCUCCAAUGCAUCCCACCACAUGACGAUGCCUGAAGAGCCUUGGUUUUUUG", "note": "[A37U U54A G61C U109C]", "polymerase ribozyme fitness (log ratio)": -7.14}, {"variant": "GACCAAUCUGCCCUCAGAGCUCGAGAACAUCUUCGGAAGCAGAGGAGGUAGGCUUCGGUGGCGCGAUAGCGCCAACGUCCUCAACCUCCAAUGCAUCCCACCACAUGAUUAUGCCUGAAGAGCCUUGGUUUUUUG", "note": "[U38A C49U G110U]", "polymerase ribozyme fitness (log ratio)": -4.28}, {"variant": "GACCAAUCUGCCCUCAGAGCUCGAGAACAUCUUCGGAAGCAGAGGAGGCAGGCUUCGGUGGCGCGAUAGCGCCAACGUCCUCAACCUCCAAUGCAUCCCAGCACAUGAUGAUGCCUGAACAGCCUUGGUUUUUUG", "note": "[U38A C101G G120C]", "polymerase ribozyme fitness (log ratio)": -2.43}, {"variant": "GACCAAUCUGCCCUCAGAGCUCGAGAACAUCUUCGGUUGCAGAGGAGGCAGGCUUCGGUGGCGCGAUAGCGCCAACGUCCUCAACCUCCAAUGCAUCCCACCACAUGAUCAUGCCUGAAGUGCCUUGGUUUUUUG", "note": "[A37U G110C A121U]", "polymerase ribozyme fitness (log ratio)": -3.77}, {"variant": "GACCAAUCUGCCCUCAGAGCUCGAGAACAUCUUCGGUUGCAGAGGAGGCAGGCUUCGGUGGCGCGAUAGCGCCAACGUCCUCAACCUCCAAUGCAUCCCACCACAUGAUGAUGCCUGAAGAGCCUUUGUUUUUUG", "note": "[A37U G127U]", "polymerase ribozyme fitness (log ratio)": -1.42}, {"variant": "GACCAAUCUGCCCUCAGAGCUCGAGAACAUCUUCGGAAGCAGAGGAGGCAGGCUUCGGUGGCGUGAUAGCGCCAACGUCCUCAACCUCCAAUGCAUCCCACCACAUGAUGAUGCCUGAAGAGCCUUGGUUUAUUG", "note": "[U38A C64U U132A]", "polymerase ribozyme fitness (log ratio)": -0.788}, {"variant": "GACCAAUCUGCCCUCAGAGCUCGAGAACAUCUUCGGUUGCAGAGGAGGCAGGCUUCGGUGGCGCGAUAGCUCCAACGUCCUCAACCUCCAAUGCAUCCCACCACAUGAUGAUGCCUGAAGAACCUUGGUUUUUUG", "note": "[A37U G71U G122A]", "polymerase ribozyme fitness (log ratio)": -1.17}, {"variant": "GACCAAUCUGCCCUCAGAGCUCGAGAACAUCUUCGGAAGCAGAGGAGGGAGGCUGCGGUGGCGCGAUAGCGCCAACGUCCUCAACCUCCAAUGCAUCCCACCACAUGAUGAUGCCUGAAGAGCCUUGGUUUUUUG", "note": "[U38A C49G U55G]", "polymerase ribozyme fitness (log ratio)": -2.77}, {"variant": "GACCAAUCUGCCCUCAGAGCUCGAGAACAUCUUCGGUUGCAGAGGAGGCAGGCAUCGGUGGCGCGAUAGCGCCAACGUCCUCAUCCUCCAAUGCAUCCCACCACAUGAUGAUGCCUGAAGAGCCUUGGUUUUUUG", "note": "[A37U U54A A84U]", "polymerase ribozyme fitness (log ratio)": -0.554}, {"variant": "GACCAAUCUGCCCUCAGAGCUCGAGAACAUCUUCGGUUGCAGAGGAGGCAGGCUUCGGUGGCGCGAUAGCGCCAACGUCCUCAACCUCCAACGCAUCCCACCACAUGAUGAUGCCUGAAGAGCCUUGGUUUUUUG", "note": "[A37U U92C]", "polymerase ribozyme fitness (log ratio)": -1.28}, {"variant": "GACCAAUCUGCCCUCAGAGCUCGAGAACAUCUUCGGUUGCAGAGGAGGCAGGCUUCGGUGGCGCGAUAGCGCCAACGCCCUCAACCCCCAAUGCAUCCCACCACAUGAUGAUGCCUGAAGAGCCUUGGUUUUUUG", "note": "[A37U U78C U87C]", "polymerase ribozyme fitness (log ratio)": 0.269}, {"variant": "GACCAAUCUGCCCUCAGAGCUCGAGAACAUCUUCGGAAGCAGAGGAGGCUGGCUUCGGUGGUGCGAUAGCGCCAACGUCCUCAACCUCCAAUGCAUCCCACCACAUGAUGAUGCCUGAAGAGGCUUGGUUUUAUG", "note": "[U38A A50U C62U C123G U133A]", "polymerase ribozyme fitness (log ratio)": -1.2}, {"variant": "GACCAAUCUGCCCUCAGAGCUCGAGAACAUCUUCGGAAGCAGAGGAGGCAGGCUUCGGUGGCGCGAUAGCGGCAACGUCCUCAACUUCCAAUGCAUCCCACCACAUGAUGAUGCCUGAAGAGCCUUGGUUUUUUU", "note": "[U38A C72G C86U G135U]", "polymerase ribozyme fitness (log ratio)": -3.57}, {"variant": "GACCAAUCUGCCCUCAGAGCUCGAGAACAUCUUCGGUUGCAGAGGAGGCAGGCUUCGGUGGCGCGAUAGCUCCAACGUCCUCAACCUCCAAUGCAUCCCACCACAUGAUGAUGCCUGAAGAGCCUUGGUUUUUUG", "note": "[A37U G71U]", "polymerase ribozyme fitness (log ratio)": -0.54}, {"variant": "GACCAAUCUGCCCUCAGAGCUCGAGAACAUCUUCGGUUGCAGAGGAGGCAGGCUUCGGUGGCGCGAUAGCGCCAACGUCCUCAACCUCCAAUGCAUCCCACCACAGGAUGAUGCCUGAAGAGGCUUGGUUUUUUG", "note": "[A37U U106G C123G]", "polymerase ribozyme fitness (log ratio)": 0.0565}]}]}
